Laboratory results: US20070225226A1, “C-REACTIVE PROTEIN APHERESIS” (The American National Red Cross, priority 2006, published 2007)
Like-named read-outs stand apart in the source and are kept apart here. Non-standard residues stand in square brackets, D forms with d. No end group written: not given here. 2Nal = N[C@@H](Cc1ccc2ccccc2c1)C(=O)O

Columns and labels:
[1] = target: T1, CRP (Homo sapiens, UniProt P02741); conditions: rats undergoing acute myocardial infarction, human CRP injected; reference (24); cited from earlier work
T1 sequence (P02741 19-224): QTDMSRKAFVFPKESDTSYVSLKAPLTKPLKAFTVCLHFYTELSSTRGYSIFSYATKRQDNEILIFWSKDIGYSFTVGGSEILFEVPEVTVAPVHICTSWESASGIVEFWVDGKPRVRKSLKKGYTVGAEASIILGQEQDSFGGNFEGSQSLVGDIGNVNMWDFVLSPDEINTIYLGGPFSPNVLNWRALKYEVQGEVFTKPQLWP

[2] = target: T1, CRP; test: Ability of resins to bind endogenous CRP from serum (LDS gel / Western blot of supernatant and eluate); format: binding; design: from tissue; host or cells: serum; conditions: two hours at room temperature, FIG. 1; for CRP detected in the supernatant after incubation with resin: 90 μl resin, 300 μl serum containing endogenous CRP; for binding of endogenous CRP by the resin: serum containing endogenous CRP
Procedure: Several of the sequences identified in Example 2 were synthesized at gram scale to assay their ability to bind CRP. 90 μl of resin of ligands eSFAZZ (SEQ ID NO: 3), hGYIGL (SEQ ID NO: 8), vLRPWK (SEQ ID NO: 4), wZQKNH (SEQ ID NO: 7) and kZPDLH (SEQ ID NO: 6) (Z denotes 2′naphthylananine, small letters denote D amino acids, and capital letters denote L amino acids) were incubated with 300 μl of serum containing endogenous CRP, for two hours at room temperature. The supernatant was collected and the protein bound to the beads was eluted by incubation at 70° C. for ten minutes in 2×LDS sample buffer (Invitrogen). 10 μl of incubation supernatant or resin eluate was loaded per lane in an LDS gel and the proteins transferred to a nitrocellulose membrane. CRP was detected on the membrane using mouse anti-human CRP monoclonal antibody CRP-8 (Cat#C-1688, Lot# 094K4803), C=9.1 mg/ml (Sigma-Aldrich, St. Louis, Mo.) and affinity purified phosphatase labeled goat anti mouse IgG(□) human serum adsorbed (Cat#075-1802, Lot# XE084) (KPL, Gaithersburg, Md., USA).
This was confirmed by the detection of CRP in the eluates from these resins. The opposite is true for the remaining resins. […] It should be noted that all three of these ligands have a positively charged amino acid at the carboxy terminus (K or H) while none of the negative resins have the positively charged residue.

[3] = target: T1, CRP; test: Equilibrium capacity for binding CRP spiked into plasma or citrate buffer (unbound CRP measured by ELISA); conditions: 80 μl resin, two hours at room temperature
Procedure: The equilibrium capacity of wZQKNH (SEQ ID NO: 7) for binding CRP was determined with CRP spiked into 200 μl of plasma or citrate buffer. 80 μl of wZQKNH resin was mixed with the spiked materials and allowed to incubate for two hours at room temperature. The supernatant was collected and CRP remaining in the supernatant (unbound fraction) was measured by ELISA. The apparent dissociation constant (the reciprocal of the association constant) for CRP bound from buffer was 12.8×10^−9 M whereas the apparent dissociation constant for CRP bound from plasma was 370×10^−9M, indicating a level of interference in plasma, possibly arising from CRP associating with other plasma proteins which may alter its dissociation constant.

[4] = target: Human CRP (C-reactive protein) (human) (UniProt P02741); test: Equilibrium binding of CRP spiked into citrate buffer to 80 ul wZQKNH resin, 2 h at room temperature; unbound CRP measured by ELISA; apparent KD
[5] = target: Human CRP (C-reactive protein) (human) (UniProt P02741); test: Equilibrium binding of CRP spiked into plasma to 80 ul wZQKNH resin, 2 h at room temperature; unbound CRP measured by ELISA; apparent KD

| Compound | CRP detected in the supernatant after incubation with resin [2] | binding of endogenous CRP by the resin [2] | also measured |
| --- | --- | --- | --- |
| C[N+](C)(C)CCOP(=O)([O-])OCCCCCCOP(=O)([O-])OCC[N+](C)(C)C [1,6-bis(phosphocholine)-hexane] | – | – | increase in infarct size and cardiac dysfunction produced by human CRP [1]: abrogate |
| Lys-Nal-Pro-Asp-Leu-His ([dK][2Nal]PDLH) [kZPDLH, hexamer peptide ligand on Toyopearl resin; Z denotes 2′naphthylalanine] | No CRP was detected | appear to bind endogenous CRP | – |
| Trp-Nal-Gln-Lys-Asn-His ([dW][2Nal]QKNH) [wZQKNH, hexamer peptide ligand on Toyopearl resin; Z denotes 2′naphthylalanine] | No CRP was detected | appear to bind endogenous CRP | Kd ([3]; CRP spiked into citrate buffer, read-out: apparent dissociation constant for CRP bound from buffer): 12.8 nM; Kd ([3]; CRP spiked into plasma, read-out: apparent dissociation constant for CRP bound from plasma): 370 nM |
| VLRPWK [hexamer peptide ligand on Toyopearl resin] | No CRP was detected | appear to bind endogenous CRP | – |
| wZQKNH (SEQ ID NO: 7) (peptide) | – | – | Kd [4]: 12.8 nM; Kd [5]: 370 nM |
